Data as given in US20250243286A1 (SIXPEAKS BIO, published 2025).
Like-named read-outs stand apart in the source and are kept apart here.

T1: human ActRIIB (human, UniProt Q13705 19-137, limits assumed)
T1 construct: antigen in MSD-SET; also called ACVR2B; ActR2B
T1 sequence: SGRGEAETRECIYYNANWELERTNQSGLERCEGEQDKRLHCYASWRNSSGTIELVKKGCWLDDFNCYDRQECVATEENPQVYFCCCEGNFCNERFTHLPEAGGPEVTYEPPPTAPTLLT


Assays:
[1] = target: T2, human ActRIIA (human, UniProt P27037 20-135, limits assumed); assay: MSD-SET
T2 construct: antigen in MSD-SET; also called ACVR2A; ActR2A
T2 sequence (P27037 20-135 limits assumed): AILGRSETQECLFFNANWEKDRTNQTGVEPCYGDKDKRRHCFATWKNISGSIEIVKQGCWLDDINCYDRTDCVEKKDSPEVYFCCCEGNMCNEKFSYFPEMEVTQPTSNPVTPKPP

[2] = target: T1, human ActRIIB; assay: MSD-SET
[3] = target: T3, ActRIIA and ActRIIB (on TGFB/SMAD SBE Reporter HEK293 cells) (human); assay: cell-based or functional assay
[4] = target: T3, ActRIIA and ActRIIB (on TGFB/SMAD SBE …); assay: cell-based or functional assay; remark: listed apart in the source
[5] = target: T1, human ActRIIB; assay: MSD-SET; remark: listed apart in the source
[6] = target: T2, human ActRIIA; assay: MSD-SET; remark: listed apart in the source
[7] = target: T1, human ActRIIB; assay: MSD-SET; remark: listed apart in the source
[8] = target: T3, ActRIIA and ActRIIB (on TGFB/SMAD SBE …); assay: cell-based or functional assay; remark: listed apart in the source
[9] = target: T2, human ActRIIA; assay: MSD-SET; remark: listed apart in the source

| Binder | Kd [1] [nM] | Kd [2] [nM] | IC50, Activin SMAD RGA [3] [nM] | IC50, Myostatin SMAD RGA [3] [nM] | IC90, Activin SMAD RGA [3] [nM] | IC90, Myostatin SMAD RGA [3] [nM] | IC50, Myostatin SMAD RGA [4] [nM] | IC90, Myostatin SMAD RGA [4] [nM] | further results |
| --- | --- | --- | --- | --- | --- | --- | --- | --- | --- |
| Antibody Hutzelbrot (antibody, V domains shown, full-length IgG) VH: QVQLVQSGAEVKKPGASVKVSCKASGYTFTSSYINWVRQAPGQGLEWMGTINAVSGSTSYAQKFQGRVTMTRDTSISTAYMELSRLRSDDTAVYYCARGGWFDYWGQGTLVTVSS VL: QSALTQPASVSGSPGQSITISCTGTSSDVGSKNYVNWYQQHPGKAPKLMIYGVSKRQSGVSNRFSGSKSGNTASLTISGLQAEDEADYYCGTFAGGDYYGVFGGGTKLTVL | 0.021 | 0.01 | 0.422 | 0.73 | 3.62 | 3.06 | – | – | – |
| Antibody Peitscheschdegga (antibody, V domains shown) VH: QVQLVQSGAEVKKPGSSVKVSCKASGYKFTSSYINWVRQAPGQGLEWMGTINAVSGSTSYAQKFQGRVTITADTSTSTAYMELSSLRSEDTAVYYCARGGWFDYWGQGTLVTVSS VL: QSALTQPRSVSGSPGQSVTISCTGTSSDVGSKNYVNWYQQHPGKAPKLMIHGVSKRESGVPDRFSGSKSGNTASLTISGLQAEDEADYYCGTFAGGKYYGVFGGGTKLTVL | – | – | – | – | – | – | 2.84 | 48.4 | IC50, Activin SMAD RGA [4]: 0.299 nM; IC90, Activin SMAD RGA [4]: 4.92 nM |
| Ofaschlupfer, Mouse IgG2a-PALALA (antibody, V domains shown, mouse IgG2a constant region with PALALA) VH: QVQLVQSGAEVKKPGSSVKVSCKASGYTFTSSYINWVRQAPGQGLEWMGTINAVSGSTSYAQKFQGRVTITADTSTSTAYMELSSLRSEDTAVYYCARGGWFDYWGQGTLVTVSS VL: QSALTQPRSVSGSPGQSVTISCTGTSSDVGSKNYVNWYQQHPGKAPKLMIYGVSKRESGVPDRFSGSKSGNTASLTISGLQAEDEADYYCGTFAGGKYYGVFGGGTKLTVL | – | – | – | – | – | – | – | – | Kd [5]: 0.004 nM |
| Antibody Krapfa (antibody, V domains shown) VH: QVQLVQSGAEVKKPGSSVKVSCKASGHKFTSSYINWVRQAPGQGLEWMGTINAVSGSTSYAQKFQGRVTITADTSTSTAYMELSSLRSEDTAVYYCARGGWFDYWGQGTLVTVSS VL: QSALTQPRSVSGSPGQSVTISCTGTSSDVGSKNYVNWYQQHPGKAPKLMIYGVSKRESGVPDRFSGSKSGNTASLTISGLQAEDEADYYCGTFAGGKYYGVFGGGTKLTVL | – | – | – | – | – | – | 0.0497 | 10400 | – |
| Antibody Hasaschlegel (antibody, V domains shown, full-length IgG) VH: QVQLVQSGAEVKKPGASVKVSCKASGYTFTSSYINWVRQAPGQGLEWMGTINAVSGSTSYAQKFQGRVTMTRDTSISTAYMELSRLRSDDTAVYYCARGGWFDYWGQGTLVTVSS VL: QSALTQPASVSGSPGQSITISCTGTSSDVGSYDYVNWYQQHPGKAPKLMIHGVSKRESGVSNRFSGSKSGNTASLTISGLQAEDEADYYCGTFAGGSYYGVFGGGTKLTVL | 0.018 | 0.013 | 0.722 | 0.977 | 5.56 | 6.59 | – | – | – |
| Antibody Dürrfloischeggla (antibody, V domains shown, full-length IgG) VH: QVQLVQSGAEVKKPGASVKVSCKASGYTFTSSYINWVRQAPGQGLEWMGTINAVSGSTSYAQKFQGRVTMTRDVSISTAYMELSRLRSDDTAVYYCARGGWFDYWGQGTLVTVSS VL: QSALTQPASVSGSPGQSITISCTGTSSDVGSYNVVNWYQQHPGKAPKLMISGVSKRESGVSNRFSGSKSGNTASLTISGLQAEDEADYYCGTFAGGKYYGVFGGGTKLTVL | 0.033 | 0.009 | 0.423 | 0.679 | 4.86 | 6.09 | – | – | – |
| Antibody Seela (antibody, V domains shown) VH: QVQLVQSGAEVKKPGSSVKVSCKASGYKFTSSYINWVRQAPGQGLEWMGTINAVSGSTSYAQKFQGRVTITADTSTSTAYMELSSLRSEDTAVYYCARGGWFDYWGQGTLVTVSS VL: QSALTQPRSVSGSPGQSVTISCTGTSSDVGSKNYVNWYQQHPGKAPKHMIYGVSKRESGVPDRFSGSKSGNTASLTISGLQAEDEADYYCGTFAGGKYYGVFGGGTKLTVL | – | – | – | – | – | – | 0.473 | 18.2 | IC50, Activin SMAD RGA [4]: 0.338 nM; IC90, Activin SMAD RGA [4]: 4.74 nM |
| Antibody Hegemark (antibody, V domains shown) VH: QVQLVQSGAEVKKPGSSVKVSCKASGYKFTSSYINWVRQAPGQGLEWMGTINAVSGSTSYAQKFQGRVTITADTSTSTAYMELSSLRSEDTAVYYCARGGWFDYWGQGTLVTVSS VL: QSALTQPRSVSGSPGQSVTISCTGTSSDVGSKNYVNWYQQHPGKAPKLMIYGVSKRHSGVPDRFSGSKSGNTASLTISGLQAEDEADYYCGTFAGGKYYGVFGGGTKLTVL | – | – | – | – | – | – | 0.516 | 23.4 | IC50, Activin SMAD RGA [4]: 0.304 nM; IC90, Activin SMAD RGA [4]: 4.37 nM |
| Antibody Ochsauga (antibody, V domains shown, full-length IgG) VH: QVQLVQSGAEVKKPGASVKVSCKASGYTFTSSYINWVRQAPGQGLEWMGTINAVSGSTSYAQKFQGRVTMTRDTSISTAYMELSRLRSDDTAVYYCARGGWFDVWGQGTLVTVSS VL: QSALTQPASVSGSPGQSITISCTGTSSDIGSYNYVNWYQQHPGKAPKLMIYGVSKRESGVSNRFSGSKSGNTASLTISGLQAEDEADYYCGTFAGGSYYGVFGGGTKLTVL | 0.016 | 0.006 | 0.238 | 0.327 | 3.15 | 2.21 | – | – | – |
| Antibody Wiebela (antibody, V domains shown) VH: QVQLVQSGAEVKKPGSSVKVSCKASGYKFTSSYINWVRQAPGQGLEWMGTINAVSGSTSYAQKFQGRVTITADTSTSTAYMELSSLRSEDTAVYYCARGGWFDYWGQGTLVTVSS VL: QSALTQPRSVSGSPGQSVTISCTGTSSDVGSKNYVNWYQQHPGKAPKLMIYGVSKRESGVPDRFSGSKSGNTASLTISGLQAEDEADYYCGTFAGGKYYGVFGGGTKLTVL | – | – | – | – | – | – | 0.25 | 14.8 | IC50, Activin SMAD RGA [4]: 0.253 nM; IC90, Activin SMAD RGA [4]: 3.96 nM |
| Ofaschlupfer, Human IgG1-PALALA (antibody, V domains shown, human IgG1 with PA-LALA (L234A/L235A/P329A), EU numbering) VH: QVQLVQSGAEVKKPGSSVKVSCKASGYTFTSSYINWVRQAPGQGLEWMGTINAVSGSTSYAQKFQGRVTITADTSTSTAYMELSSLRSEDTAVYYCARGGWFDYWGQGTLVTVSS VL: QSALTQPRSVSGSPGQSVTISCTGTSSDVGSKNYVNWYQQHPGKAPKLMIYGVSKRESGVPDRFSGSKSGNTASLTISGLQAEDEADYYCGTFAGGKYYGVFGGGTKLTVL | – | – | – | – | – | – | – | – | Kd [5]: 0.003 nM |
| Antibody Floischbrühsupp (antibody, V domains shown, full-length IgG) VH: QVQLVQSGAEVKKPGASVKVSCKASGYTFTSSYINWVRQAPGQGLEWMGTINAVSGSTSYAQKFQGRVTMTRDTSISTAYMELSRLRSDDTAVYYCARGGWFDYWGQGTLVTVSS VL: QSALTQPASVSGSPGQSITISCTGTSSDVGSFNYVNWYQQHPGKAPKLMIKGVSKRESGVSNRFSGSKSGNTASLTISGLQAEDEADYYCGTFAGGAYYGVFGGGTKLTVL | 0.023 | 0.01 | 0.324 | 0.394 | 4.69 | 2.62 | – | – | – |
| Ofaschlupfer, Human IgG1-PALALA-YTE (antibody, V domains shown, human IgG1 with PA-LALA (L234A/L235A/P329A) and YTE (M252Y/S254T/T256E), EU numbering) VH: QVQLVQSGAEVKKPGSSVKVSCKASGYTFTSSYINWVRQAPGQGLEWMGTINAVSGSTSYAQKFQGRVTITADTSTSTAYMELSSLRSEDTAVYYCARGGWFDYWGQGTLVTVSS VL: QSALTQPRSVSGSPGQSVTISCTGTSSDVGSKNYVNWYQQHPGKAPKLMIYGVSKRESGVPDRFSGSKSGNTASLTISGLQAEDEADYYCGTFAGGKYYGVFGGGTKLTVL | – | – | – | – | – | – | – | – | Kd [5]: 0.003 nM |
| Ochsamaulsalat Fab (Fab, V domains shown, Fab) VH: QVQLVQSGAEVKKPGASVKVSCKASGYTFTSSYINWVRQAPGQGLEWMGTINAVSGSTSYAQKFQGRVTMTRDTSISTAYMELSRLRSDDTAVYYCARGGWFDYWGQGTLVTVSS VL: QSALTQPASVSGSPGQSITISCTGTSSDVGSRNYVNWYQQHPGKAPKLMIYGVSKRESGVSNRFSGSKSGNTASLTISGLQAEDEADYYCGTFAGGDYYGVFGGGTKLTVL | – | – | – | – | – | – | – | – | Kd [6]: 0.055 nM; Kd [7]: 0.062 nM; IC50, Activin SMAD RGA [8]: 1.5 nM; IC50, Myostatin SMAD RGA [8]: 2.32 nM |
| Schwardamaga, Human IgG1-PALALA (antibody, V domains shown, human IgG1 with PA-LALA (L234A/L235A/P329A), EU numbering) VH: QVQLVQSGAEVKKPGSSVKVSCKASGYTFTSSYINWVRQAPGQGLEWMGTINAVSGSTSYAQKFQGRVTITADTSTSTAYMELSSLRSEDTAVYYCARGGWFDYWGQGTLVTVSS VL: QSALTQPRSVSGSPGQSVTISCTGTSSDVGSANYVNWYQQHPGKAPKPMIYGVSRRPSGVPDRFSGSKSGNTASLTISGLQAEDEADYYCGTFAGGKYYGVFGGGTKLTVL | – | – | – | – | – | – | – | – | Kd [9]: 0.036 nM; Kd [5]: 0.011 nM |
| Antibody Pfitzauf (antibody, V domains shown, full-length IgG) VH: QVQLVQSGAEVKKPGASVKVSCKASGYTFTSSYINWVRQAPGQGLEWMGTINPVSGSTSYAQKFQGRVTMTRDTSISTAYMELSRLRSDDTAVYYCARGGWFDYWGQGTLVTVSS VL: QSALTQPASVSGSPGQSITISCTGTSSDVGSGNYVNWYQQHPGKAPKLMIYGVSKRESGVSNRFSGSKSGNTASLTISGLQAEDEADYYCGTFAGGKYYGVFGGGTKLTVL | 0.052 | 0.008 | 0.231 | 0.0984 | 3.03 | 1.35 | – | – | – |
